{"source": "paper PMC9646986", "about": "“A sandwich-like configuration with a signal amplification strategy using a methylene blue/aptamer complex on a heterojunction 2D MoSe2/2D WSe2 electrode: Toward a portable and sensitive electrochemica”", "target": "T1, alpha-fetoprotein (AFP) (UniProt P02771 19-609)", "T1 sequence": "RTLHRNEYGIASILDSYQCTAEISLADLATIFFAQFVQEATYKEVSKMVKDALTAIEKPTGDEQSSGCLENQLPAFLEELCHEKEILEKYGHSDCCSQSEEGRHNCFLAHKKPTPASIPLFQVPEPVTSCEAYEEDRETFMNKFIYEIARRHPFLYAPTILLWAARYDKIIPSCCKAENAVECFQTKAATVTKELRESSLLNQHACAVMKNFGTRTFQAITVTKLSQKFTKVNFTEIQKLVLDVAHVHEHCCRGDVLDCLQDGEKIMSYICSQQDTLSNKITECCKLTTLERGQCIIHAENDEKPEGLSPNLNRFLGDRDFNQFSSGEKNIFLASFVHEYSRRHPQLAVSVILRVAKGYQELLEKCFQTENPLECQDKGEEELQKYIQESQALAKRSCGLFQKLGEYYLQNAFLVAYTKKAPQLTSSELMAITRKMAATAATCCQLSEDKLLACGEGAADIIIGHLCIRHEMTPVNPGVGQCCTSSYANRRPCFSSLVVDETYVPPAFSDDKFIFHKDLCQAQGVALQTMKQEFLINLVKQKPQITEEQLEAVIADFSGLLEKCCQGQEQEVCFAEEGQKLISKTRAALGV", "test": "electrochemical sandwich assay (DPV, methylene blue read-out); AFP 50 ng/ml captured by anti-AFP; aptamer 10 uM; MB 10 mM; DPV in 0.010 M PBS pH 7.4 (performance section prints 0.0010 M); aptamer 10 uM, 40 min; temperature not given", "details": "protein: commercial"}
{"binder": "GTGACGCTCCTAACGCTGACTCAGGTGCAGTTCTCGACTCGGTCTT (ssDNA)", "note": "[AFP aptamer]", "values": [{"measurement": "binding result", "result": "binds"}]}
